Measured values: article PMC7721913 (The Journal of Cell Biology, 2020)

Key:
SFPQ [1] = experiment: Coimmunoprecipitation of endogenous SFPQ from DRG lysate, Western blot; format: binding, rat; conditions: DRG sensory neuron lysate
[2] = test system: CB and distal axon compartments of DRG neurons; experiment: Western blot of KIF5 and KLC in cell body and distal axon lysates; format: cell-based, rat; conditions: Campenot CB vs distal axon lysates
SFPQ [3] = experiment: PRM-based quantification of KIF5 and KLC in SFPQ immunoprecipitations; format: binding, rat; conditions: KIF5A vs KIF5B or KIF5C, KLC1 vs KLC2; three independent experiments

B1: KIF3C: kinesin transporting RNA granules in neurons (protein, UniProt O55165 1-796, looked up)
Kinesin-like protein KIF3C: MASKTKASEALKVVARCRPLSRKEEAAGHEQILTMDVKLGQVTLRNPRAAPGELPKTFTFDAVYDASSKQADLYDETVRPLIDSVLQGFNGTVFAYGQTGTGKTYTMQGTWVEPELRGVIPNAFEHIFTHISRSQNQQYLVRASYLEIYQEEIRDLLSKEPGKRLELKENPETGVYIKDLSSFVTKNVKEIEHVMNLGNQARAVGSTHMNEVSSRSHAIFVITVECSERGSDGQDHIRVGKLNLVDLAGSERQNKAGPNTPGGPATQSTAGGGGGGGGTSGSGSSGERPKEASKINLSLSALGNVIAALAGNRSTHIPYRDSKLTRLLQDSLGGNAKTIMVATLGPASHSYDESLSTLRFANRAKNIKNKPRVNEDPKDTLLREFQEEIARLKAQLEKKGMLGKRPRRKSSRRKKAVSAPAGYPEGAVIEAWVAEEEDDNNNNHRPPQPTLEAALEKNMENYLQEQKERLEEEKAAIQDDRSLVSEEKQKLLEEKEKMLEDLKREQQATELLAAKYKAMESKLLIGGRNIMDHTNEQQKMLELKRQEIAEQKRREREMQQEMLLRDEETMELRGTYSSLQQEVEVKTKKLKKLYAKLQAVKAEIQDQHEEYIRVRQDLEEAQNEQTRELKLKYLIIENFIPPEEKNKIMNRLFLDCEEEQWKFQPLVPAGVNNSQMKKRPTSAVGYKRPISQYARVAMAMGSHPRYRAENIMFLELDVSPPAIFEMEFSHDQEQDPRVLHMERLMRLDSFLERPSTSKVRKSRSWCQSPQRPPPPSTVHASMASAPLHPATVVDHD
Q: B1 was tested. Which “coimmunoprecipitation with SFPQ (in words)” value (“coimmunoprecipitation” below) (SFPQ [1]) did it give?
A: none of these kinesins significantly coimmunoprecipitates with SFPQ

B2: KIF5C: kinesin heavy chain KIF5C (protein, UniProt O60282 1-957, looked up)
Kinesin heavy chain isoform 5C: MADPAECSIKVMCRFRPLNEAEILRGDKFIPKFKGDETVVIGQGKPYVFDRVLPPNTTQEQVYNACAKQIVKDVLEGYNGTIFAYGQTSSGKTHTMEGKLHDPQLMGIIPRIAHDIFDHIYSMDENLEFHIKVSYFEIYLDKIRDLLDVSKTNLAVHEDKNRVPYVKGCTERFVSSPEEVMDVIDEGKANRHVAVTNMNEHSSRSHSIFLINIKQENVETEKKLSGKLYLVDLAGSEKVSKTGAEGAVLDEAKNINKSLSALGNVISALAEGTKTHVPYRDSKMTRILQDSLGGNCRTTIVICCSPSVFNEAETKSTLMFGQRAKTIKNTVSVNLELTAEEWKKKYEKEKEKNKTLKNVIQHLEMELNRWRNGEAVPEDEQISAKDQKNLEPCDNTPIIDNIAPVVAGISTEEKEKYDEEISSLYRQLDDKDDEINQQSQLAEKLKQQMLDQDELLASTRRDYEKIQEELTRLQIENEAAKDEVKEVLQALEELAVNYDQKSQEVEDKTRANEQLTDELAQKTTTLTTTQRELSQLQELSNHQKKRATEILNLLLKDLGEIGGIIGTNDVKTLADVNGVIEEEFTMARLYISKMKSEVKSLVNRSKQLESAQMDSNRKMNASERELAACQLLISQHEAKIKSLTDYMQNMEQKRRQLEESQDSLSEELAKLRAQEKMHEVSFQDKEKEHLTRLQDAEEMKKALEQQMESHREAHQKQLSRLRDEIEEKQKIIDEIRDLNQKLQLEQEKLSSDYNKLKIEDQEREMKLEKLLLLNDKREQAREDLKGLEETVSRELQTLHNLRKLFVQDLTTRVKKSVELDNDDGGGSAAQKQKISFLENNLEQLTKVHKQLVRDNADLRCELPKLEKRLRATAERVKALESALKEAKENAMRDRKRYQQEVDRIKEAVRAKNMARRAHSAQIAKPIRPGHYPASSPTAVHAIRGGGGSSSNSTHYQK
Q: Which “compartment localization (in words)” value [2] does the source give for B2 here?
A: localize to both CB and distal axon compartments

B3: WT KIF5A: kinesin heavy chain KIF5A (protein, UniProt Q6QLM7 2-1027, looked up)
Kinesin heavy chain isoform 5A: AETNNECSIKVLCRFRPLNQAEILRGDKFIPIFQGDDSVIIGGKPYVFDRVFPPNTTQEQVYHACAMQIVKDVLAGYNGTIFAYGQTSSGKTHTMEGKLHDPQLMGIIPRIARDIFNHIYSMDENLEFHIKVSYFEIYLDKIRDLLDVTKTNLSVHEDKNRVPFVRGCTERFVSSPEEILDVIDEGKSNRHVAVTNMNEHSSRSHSIFLINIKQENIETEQKLSGKLYLADLAGSEKVSKTGAEGAVLDEAKNINKSLSALGNVISALAEGTKSYVPYRDSKMTRILQDSLGGNCRTTMFICCSPSSYNDAETKSTLMFGQRAKTIKNTASVNLELTAEQWKKKYEKEKEKTKAQKETIAKLEAELSRWRNGENVPETERLAGEDSALAAEICEETPVNDNSSIVVRIAPEERQKYEEEIRRLYKQLDDKDDEINQQSQLIEKLKQQMLDQEELLVSTRGDNEKVQRELSHLQSENDAAKEEVKEVLQALEELAVNYDQKSQEVEEKSQQNQLLVDELSQKVATMLSLESEPQRLQEVSGHQRKRIAEVLNGLMKDLSEFSVIVGNGEIKLPVEISGAIEEEFTVARLYISKIKSEVKSVVKRCRQLENLQVECHRKMEVTGRELSSCQLLISQHEAKIRSLTEYMQTVELKKRHLEESYDSLSDELAKLQAQETVHEVALKDKEPDTQDAEEVKKALELQMENHREAHHRQLARLRDEINEKQKTIDELKDLDQKLQLELEKLQADYERLKNEENEKSAKLQELTFLYERHEQSKQDLKGLEETVARELQTLHNLRKLFVQDVTTRVKKSAEMEPEDSGGIHSQKQKISFLENNLEQLTEVHKQLVRDNADLRCELPKLEKRLRATAERVKALEGALKEAKEGAMKDKRRYQQEVDRIKEAVRYKSSGKRGHSAQIAKPVRPGHYPASSPTNPYGTRSPECISYTNNLFQNYQNLHLQAAPSSTSDVYFASNGATSVAPLASYQKANTDNGNATDINDNRSDLPCGYEAEDPAKLFPLHQETAAS
Q: How did the “compartment localization (in words)” value [2] turn out when B3 was run?
A: localize to both CB and distal axon compartments

Q: And the “coimmunoprecipitation” value (SFPQ [1])?
A: preferentially coimmunoprecipitates

Q: And the “relative abundance in SFPQ immunoprecipitate (in words)” value (SFPQ [3])?
A: approximately twice as abundant

B4: KLC1: kinesin light chain 1 (protein)
chain: MHDNMSTMVYMKEEKLEKLTQDEIISKTKQVIQGLEALKNEHNSILQSLLETLKCLKKDDESNLVEEKSSMIRKSLEMLELGLSEAQVMMALSNHLNAVESEKQKLRAQVRRLCQENQWLRDELANTQQKLQKSEQSVAQLEEEKKHLEFMNQLKKYDDDISPSEDKDSDSSKEPLDDLFPNDEDDPGQGIQQQHSSAAAAAQQGGYEIPARLRTLHNLVIQYASQGRYEVAVPLCKQALEDLEKTSGHDHPDVATMLNILALVYRDQNKYKDAANLLNDALAIREKTLGRDHPAVAATLNNLAVLYGKRGKYKEAEPLCKRALEIREKVLGKDHPDVAKQLNNLALLCQNQGKYEEVEYYYQRALEIYQTKLGPDDPNVAKTKNNLASCYLKQGKFKQAETLYKEILTRAHEREFGSVDDENKPIWMHAEEREECKGKQKDGSSFGEYGGWYKACKVDSPTVTTTLKNLGALYRRQGKFEAAETLEEAALRSRKQGLDNVHKQRVAEVLNDPENVEKRRSRESLNVDVVKYESGPDGGEEVSMSVEWNGMRKMKLGLVK
Q: With B4 as the molecule, how does the “compartment localization (in words)” value [2] read?
A: localize to both CB and distal axon compartments

Q: What about the “coimmunoprecipitation” value (SFPQ [1]) of the same molecule?
A: preferentially coimmunoprecipitates

Q: What about the “relative abundance in SFPQ immunoprecipitate (in words)” value (SFPQ [3]) of the same molecule?
A: approximately twice as abundant

B5: KLC2: kinesin light chain 2 (protein, UniProt Q9H0B6 1-622, looked up)
Kinesin light chain 2: MAMMVFPREEKLSQDEIVLGTKAVIQGLETLRGEHRALLAPLVAPEAGEAEPGSQERCILLRRSLEAIELGLGEAQVILALSSHLGAVESEKQKLRAQVRRLVQENQWLREELAGTQQKLQRSEQAVAQLEEEKQHLLFMSQIRKLDEDASPNEEKGDVPKDTLDDLFPNEDEQSPAPSPGGGDVSGQHGGYEIPARLRTLHNLVIQYASQGRYEVAVPLCKQALEDLEKTSGHDHPDVATMLNILALVYRDQNKYKEAAHLLNDALAIREKTLGKDHPAVAATLNNLAVLYGKRGKYKEAEPLCKRALEIREKVLGKFHPDVAKQLSNLALLCQNQGKAEEVEYYYRRALEIYATRLGPDDPNVAKTKNNLASCYLKQGKYQDAETLYKEILTRAHEKEFGSVNGDNKPIWMHAEEREESKDKRRDSAPYGEYGSWYKACKVDSPTVNTTLRSLGALYRRQGKLEAAHTLEDCASRNRKQGLDPASQTKVVELLKDGSGRRGDRRSSRDMAGGAGPRSESDLEDVGPTAEWNGDGSGSLRRSGSFGKLRDALRRSSEMLVKKLQGGTPQEPPNPRMKRASSLNFLNKSVEEPTQPGGTGLSDSRTLSSSSMDLSRRSSLVG
Q: How did the “compartment localization (in words)” value [2] turn out when B5 was run?
A: localize to both CB and distal axon compartments
